# Target: T1, rsDR5 (recombinant human DR5 extracellular domain protein) (human, UniProt O14763 56-183)
# T1 construct: the two may be offset
# Test: gel filtration (Superdex 200) of the mixture of cB273 Fab fragment and rsDR5; complex then crystallized
binder,measurement,value
"cB273 Fab fragment (Fab, V domains shown) VH: EVQLQQSGPELVKPGASVKISCKASGYSFIGYFMNWMKQSHGKSLEWIGRFNPYNGDTFYNQKFKGKATLTVDKSSTTAHMELLSLTSEDSAVYFCGRSAYYFDSGGYFDYWGQGTTLTVSS VL: DVVMTQTPLSLPVSLGDQASISCRSSQSLVHSNGNTYLHWYLQKPGQSPKLLIYKVSNRFSGVPDRFSGSGSGTDFTLKISRVEAEDLGIYFCSQSTHVPWTFGGGTKLEIKR",binding result,binds
